Consider 1 protein from publication PMC6273018, “Effects of Flavonoids in Lysimachia clethroides Duby on the Activities of Cytochrome P450 CYP2E1 and CYP3A4 in Rat Liver Microsomes” (Molecules, 2016).

Substrate in the data set: O=[N+]([O-])c1ccc(O)cc1
The data set can be described thus: cells, lysate or membranes named. The note with it: other: Lineweaver-Burk plot; rat liver microsomes; pH 7.4. A general note: Liver microsomes are a subcellular fraction often used to study metabolism.

Description: The rats were fasted for 12 h with free access to water and then sacrificed by cervical dislocation. The liver was removed promptly and washed with ice-cold physiological saline solution to yellowish brown. […] The liver homogenate solution was centrifuged at 4 °C for 20 min at 12,000 r·min^−1 and supernatant fraction was reserved. The supernatant per millilitre was added with 0.1 mL CaCl2 (88 mM), gently shaken and kept at 0 to 4 °C for 5 min. The mixed solution was transferred to centrifuge tubes and centrifuged at 4 °C for 30 min at 15,000 r·min^−1. […] Protein concentration of the microsomes was determined by the method of Bradford. […]
The apparent Km (Michaelis constant) value was calculated according to the Michaelis-Menten equation and Lineweaver-Burk plot.
Group 1 (normal control) was added with phosphate buffer, group 2 (flavonoids reagent group) were added with flavonoids, and group 3 was given clomethiazole as positive control. […] The concentrations of probe substrate metabolites were calculated from the standard curves. The percentage of inhibition was calculated using the formula: %Inhibition = ((A0 − A1)/A0) × 100%, in which A0 was the concentration of probe substrate metabolite of group 1 and A1 was the concentration of probe substrate metabolite of group 2 and 3. The IC50 values were calculated based on the concentration-effect linear regression curve.

B1: CYP2E1 (Rattus norvegicus) (protein)
chain: MAVLGITIALLVWVATLLVISIWKQIYNSWNLPPGPFPLPILGNIFQLDLKDIPKSFTKLAKRFGPVFTLHLGSRRIVVLHGYKAVKEVLLNHKNEFSGRGDIPVFQEYKNKGIIFNNGPTWKDVRRFSLSILRDWGMGKQGNEARIQREAQFLVEELKKTKGQPFDPTFLIGCAPCNVIADILFNKRFDYNDKKCLRLMSLFNENFYLLSTPWIQLYNNFADYLRYLPGSHRKIMKNVSEIKQYTLEKAKEHLQSLDINCARDVTDCLLIEMEKEKHSQEPMYTMENVSVTLADLFFAGTETTSTTLRYGLLILMKYPEIEEKLHEEIDRVIGPSRVPAVRDRLDMPYMDAVVHEIQRFINLVPSNLPHEATRDTVFQGYVIPKGTVVIPTLDSLLYDSHEFPDPEKFKPEHFLNENGKFKYSDYFKAFSAGKRVCVGEGLARMELFLLLSAILQHFNLKSLVDPKDIDLSPVTVGFGSIPPQFKLCVIPRS
The Km is the substrate concentration at which the rate is half of its maximum. Take B1: the Michaelis constant (Km) worked out at 90.92 µM.
